Results published in article PMC12056172.

Target: FLAG-tagged RHOA (UniProt P61586)
Test: co-IP

Sequence of UniProt P61586 (P61586 whole entry): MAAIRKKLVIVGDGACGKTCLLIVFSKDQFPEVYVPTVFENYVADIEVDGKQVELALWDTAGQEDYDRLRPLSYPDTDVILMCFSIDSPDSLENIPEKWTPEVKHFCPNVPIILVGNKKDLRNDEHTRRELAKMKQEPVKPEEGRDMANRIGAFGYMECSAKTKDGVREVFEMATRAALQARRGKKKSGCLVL

DAAM1-ΔDAD without microexon (-MIC) (domain or fragment)
decrease of the co-IP signal against the +MIC construct: 40%
